{"source": "paper PMC9170038", "binders": {"B1": {"name": "Eterna 7682639 (Same State - Theophylline A) (ssRNA)", "RNA": "GAAGGUCAAAGACCUUCGUGCACAUCUGAUACCAGUCGCGAAAGCGACCCUUGGCAGCAGGGCAGUGAUGUUGCCAGUGCACAAA"}, "B2": {"name": "Eterna 6079023 (Exclusion 4) (ssRNA)", "RNA": "UUCACGUCAGGAUAUCCAUAUUUCCGAAAUAACGGUACUUUGGAGAAGGGACAUGAGGAUCACCCAUGUCCUCG"}, "B3": {"name": "Eterna 7730362 (Exclusion - Arginine B) (ssRNA)", "RNA": "GGACUAACCAGAAGGAGCGGCGCGCAGAAACUGCUAAUUCCUCCGCACGAGGAUCACCCGUGUCAGGUAGGUCGCUGGUUAGUCG"}, "B4": {"name": "Eterna 6084857 (Exclusion 6) (ssRNA)", "RNA": "UCAAAUACUGAGGAUAUAACGACUGAAUCCGCGUUAGAAGGUAGUACAUGAGGAUCACCCAUGUCAACCAGAGG"}, "B5": {"name": "Eterna 7710839 (Same State - Theophylline A) (ssRNA)", "RNA": "UAAUAAAUAAAUCCAAGGUGAAGGUCAGAUACCAGCCAGAUAACUGGCCCUUGGCAGCUGAAUAAGCUUGAGGAUCACCCAAGUA"}, "B6": {"name": "Eterna 7691153 (Same State - Arginine B) (ssRNA)", "RNA": "AAUGCAUAGUGAAGGAGCGCGAUUUGCAGUGAUGUUGCAAAUUUAAACAAUCUUAUCUUUUCGCAGGUAGGUCGCACUAUGCAUA"}, "B7": {"name": "Eterna 7690543 (Exclusion - Theophylline B) (ssRNA)", "RNA": "AUUUAAUUAACUGAUACCAGACUUUAUGUAUUUAUUAAAACUAGUGAUGUUAGUUUAUCUGUCCCUUGGCAGCAGUUUCUACUUA"}, "B8": {"name": "Eterna 7690487 (Same State - Theophylline B) (ssRNA)", "RNA": "UGUCAUUGGUCUGAUACCAGUUAGACCGAUAGGUCAAAACUGGAGUGAUGUUCCCAAAAUAACCCUUGGCAGCAGACCGAUGACU"}, "B9": {"name": "Eterna 7729929 (Exclusion - Tryptophan B) (ssRNA)", "RNA": "GGAUAGGACACGGCCGCCACUAGCUAGGAUACUAGCAACAUUUCCUCAUCUGAGGAUCACCCAGGUAGGACCGGGUGUCCUAUCG"}, "B10": {"name": "Eterna 7637577 (Same State - Tryptophan B) (ssRNA)", "RNA": "GUAGCUAUCGCGGCCGCCACUAAACCGGAAACGGAACAGGAGGAUCACCCUUGUGGCGAAAGCCAUAGGACCGGGCGAUAGCUAC"}, "B11": {"name": "Eterna 7708077 (Same State - FMN A) (ssRNA)", "RNA": "UUUUACGAGUGAUGUUCGUAAUGUAAUAGUUAGGAUAUCGUUUUUUCGAGAAGGAACUUCGAAGUGAUACGAAAGUAUCGCUUCG"}, "B12": {"name": "Eterna 6430949 (Inverted Small Loop Exclusion NG 1) (ssRNA)", "RNA": "GGGACCUACGAGAAGGGCUACAUGAGGAUCACCCAUGUAAAUCUUCGGGUGGCAGGAUAUCGGCGGCUACAGGAGGGCCAGGUC"}, "B13": {"name": "Eterna 7710140 (Exclusion - Tryptophan A) (ssRNA)", "RNA": "AGCUCGCAAUCCUCAGCGUCAAAGACGCGUCGAGGACCGGUACGGCCGCCACUCGACAAGAGGAUCACCCUUGUCUAAGCGAGCA"}, "B14": {"name": "Eterna 7716236 (Same State - Tryptophan B) (ssRNA)", "RNA": "GCGCGGCAGGCGGCCGCCACUCUGACGAGCCACAGUGAUGUUGUGGUCGGAGAAACGUCUUCAUAGAGGACCGGGUUUGUUGUUC"}, "B15": {"name": "Eterna 11587 (Sensor for hsa-mir-208a) (ssRNA)", "RNA": "AUUUAACAAGCUUUUUGCUCGUCUUAUAAACAUGAGGAUCACCCAUGUAAUAGCGUGAGAGUAAAUAAUUUAAUAAU"}, "B16": {"name": "Eterna 7652494 (Same State - Tryptophan B) (ssRNA)", "RNA": "AGUAGACACGCGGCCGCCACUUGAGGAUCACCCAGGUGGUGUGUACUUGAAAACAAGUGCACAUCAAGGACCGGGCGUGUCUACA"}, "B17": {"name": "Eterna 7712973 (Exclusion - Theophylline A) (ssRNA)", "RNA": "AGACCUCAGUGAUGUUGAGGUAACACUGAUACCAGCGACUUAAUUCGCCCUUGGCAGCAGUCCACCGAGGUAUCUGAUUAGGUCA"}, "B18": {"name": "Eterna 6430991 (Inverted Small Loop Exclusion NG 1) (ssRNA)", "RNA": "CCUCGCUGUUAGAAGGCACCUUCGGCUUUGGCUUUUGGAGUUGGGCGAUGGUGAGGAUAUAACAUGAGGAUCACCCAUGUUCAA"}, "B19": {"name": "Eterna 7753129 (Same State - Arginine B) (ssRNA)", "RNA": "GGGUUGAACUGAAGGAGCGAGAAAUAGAAAGUAAGAAGAUAAGCUAGUGAUGUUAGAAAUUCUCAGGUAGGUCGCAGUAAGAAUU"}, "B20": {"name": "Eterna 6456627 (Same State NG 3) (ssRNA)", "RNA": "GCGCCUCAGAACAUGAGGAUCACCCAUGUGCUGCGGGCGCCGUAGGAUAUGAUGGUACGCUACCAUCAGAAGGAUGAUGGUACC"}, "B21": {"name": "Eterna 7687680 (Same State - Theophylline A) (ssRNA)", "RNA": "AUUGAUAUAUAUAUUUGAUUUUUAUGUGAUACCAGACAAGGCAUAGUCCCUUGGCAGCACUUUAUAUUUACGAGUGAUGUUCGUA"}, "B22": {"name": "Eterna 7692300 (Exclusion - FMN B) (ssRNA)", "RNA": "UGGGCUGCCUGAGGAUAUAGAGACGAGUGAUGUUCGUGGAUAAGAGCCAGUGAUGUUGGGUUAUUUCUAGAAGGCGGGCGAACUU"}, "B23": {"name": "Eterna 7627109 (Same State - Theophylline A) (ssRNA)", "RNA": "CUCCGAGGCUAUACUAUCCGCCUCUGUGAUACCAGAAUACCUAUAUUCCCUUGGCAGCAUCACAUGAGGAUCACCCAUGUGCCAU"}, "B24": {"name": "Eterna 7726887 (Same State - Arginine A) (ssRNA)", "RNA": "AAUACCUGAGUGAUGUUCAGGGAAUCAGAAGGAGCGUCAAUUAUGACAGGUAGGUCGCUGAAGACAUGUGUGUAUACACAUGUCC"}, "B25": {"name": "Eterna 6457182 (Inverted Small Loop Same State NG 1) (ssRNA)", "RNA": "CGUCUAUGCAAGAAGGCAUGAAACAUGAGGAUCACCCAUGUCAAAGACAUGAGGAUAUUGCAUAGACGAAAAGUGCGAAAGCAC"}, "B26": {"name": "Eterna 7720377 (Same State - Arginine B) (ssRNA)", "RNA": "GCCUAGCAGGGAAGGAGCGGCAUAAGCAUAGAUAAUAUGCAGUUAGUGAUGUUAAUACUAUGCCAGGUAGGUCGCCCUGCUAGGC"}, "B27": {"name": "Eterna 7729660 (Same State - Arginine B) (ssRNA)", "RNA": "ACGAAGGAUGGAAGGAGCGCUCGUCAGUCCUGCGAGUGAUGUUCGUGGGUAAAUAGUCGCGAGCAGGUAGGUCGCCAUCUUGAGC"}, "B28": {"name": "Eterna 6424838 (Exclusion NG 2) (ssRNA)", "RNA": "GCCGGUUCCCUAGGAUAUGUACAUGAGGAUCACCCAUGUGCCUCUAGAGCCGGAACAGGGCAUGUACAGAAGGAGGGUCGACCC"}, "B29": {"name": "Eterna 7690461 (Exclusion - Theophylline A) (ssRNA)", "RNA": "UAAUUUAUGUCUUUAAUAUAAUAAUCAGAUACCAGUGAUUUAUGACACCCUUGGCAGCUGUAUAGAGUGAUGUUCUUAUACAUAA"}, "B30": {"name": "Eterna 7765403 (Exclusion - FMN A) (ssRNA)", "RNA": "AGUGAUGUAUGGCGGUUUGUCACUUAAAAUCAGGAUAUAUAAACAAAUAGAAGGGAUGGCGGAGUGAUGUUCCGCCGGCCGCCAU"}}}
{"target": "MS2 coat protein, dlFG mutant (Escherichia phage MS2, UniProt P03612, del68-81insG)", "assay": "4 mM Mg2+; no ligand; RNA-MaP array; 100 mM Tris-HCl pH 7.5, 80 mM KCl, 4 mM MgCl2, 0.1 mg/mL BSA, 1 mM DTT, 0.01 mg/mL yeast tRNA, 0.01% Tween-20; protein 1.5 nM to 3 uM; 37 C (Table S3)", "conditions": "chain copies: 2; label: tethered by stalled RNA polymerase", "units": {"Kd": "nM"}}
{"binder": "B1", "Kd": "> 3000"}
{"binder": "B2", "Kd": 17.9}
{"binder": "B3", "Kd": 10}
{"binder": "B4", "Kd": 17.2}
{"binder": "B5", "Kd": 36.1}
{"binder": "B6", "Kd": "> 3000"}
{"binder": "B7", "Kd": "> 3000"}
{"binder": "B8", "Kd": "> 3000"}
{"binder": "B9", "Kd": 563}
{"binder": "B10", "Kd": 483}
{"binder": "B11", "Kd": "> 3000"}
{"binder": "B12", "Kd": 8.57}
{"binder": "B13", "Kd": 330}
{"binder": "B14", "Kd": "> 3000"}
{"binder": "B15", "Kd": 11.3}
{"binder": "B16", "Kd": 12.7}
{"binder": "B17", "Kd": "> 3000"}
{"binder": "B18", "Kd": 9.79}
{"binder": "B19", "Kd": "> 3000"}
{"binder": "B20", "Kd": 4.99}
{"binder": "B21", "Kd": "> 3000"}
{"binder": "B22", "Kd": "> 3000"}
{"binder": "B23", "Kd": 13.2}
{"binder": "B24", "Kd": "> 3000"}
{"binder": "B25", "Kd": 4.44}
{"binder": "B26", "Kd": "> 3000"}
{"binder": "B27", "Kd": "> 3000"}
{"binder": "B28", "Kd": 7.13}
{"binder": "B29", "Kd": "> 3000"}
{"binder": "B30", "Kd": "> 3000"}
